Source: patent publication US7880021B2, “Compounds and kits for the detection and the quantification of cell apoptosis” (Centre National de la Recherche Scientifique (CNRS), priority 2005, dated 2011)
Numbered stars: 1 amine (or outer) side, 2 acyl side, 3 side chain; on linkers, the order of the positions; unused ones are H or OH. Bridge positions count the residues as written; N and C are the ends. Square brackets hold non-standard residues; d marks the D form. Peptide text beside a SMILES is read from it. I, II: the chains in the order shown. Actinocin(9to1) = Cc1c2oc3c(C)ccc(C(=O)[*:1])c3nc-2c(C(=O)[*:2])c(N)c1=O; NMeV = CN[C@H](C(=O)O)C(C)C; Sar = CNCC(=O)O

Key:
CEM T cells = assay: Determination of hypodiploid DNA with PI by flow cytometry; assay type: cell-based, human; settings: actinomycin D 0.5 μg/ml for 18 h; mean±SEM
Procedure: (§1) Human lymphoid CEM T cells were cultured in X-vivo 15 medium (Cambrex, France) at 37° C. in humidified 5% CO2 atmosphere. Cell viability was checked by trypan blue exclusion. Cells were seeded at 5×10^5 cells/ml in the presence or absence of actinomycin D (0.5 μg/ml) for 18 h. Cells were pelleted by centrifugation at 1500 rpm for 5 min and resuspended at 1×10^6 cells/ml in X-vivo 15 medium for experiments.
To verify the proportion of apoptotic cells, measurements of hypodiploid DNA with PI by flow cytometry have been performed. After apoptotic treatment, cells were harvested and numbered. Concentration in a 70% ethanol solution in H2O was adjusted to 5×10^5 cells/ml and fixation was allowed to proceed for at least 1 h at 4° C. Cells were washed once in Hank's balanced salt solution (HBSS) before resuspension in HBSS containing RNAse (0.5 mg/ml), PI (0.1 mg/ml) and incubation for 15 min at room temperature in the dark. Samples were analysed by flow cytometry using the CELLQuest software (Becton Dickinson, San Jose, Calif.). Under these conditions, the content of hypodiploid DNA in CEM T cells was 30±2% (mean±SEM).

T lymphocytes = assay: Laser scanning confocal ratiometric imaging of T lymphocytes; assay type: cell-based
Procedure: FIG. 9: Laser scanning confocal imaging of T lymphocytes stained with annexin V-FITC (a) and F2N12S (b and c). Combination of transmission and fluorescence images of cells treated with actinomycin D for 18 hours (please complete this sentence). […] Due to their low binding to annexin V, normal cells are not visualized in the fluorescence images. (b and c) Ratiometric images of normal (b) and actinomycin D-treated (c) cells stained with 0.2 μM F2N12S. […] The size of the images is 60×73.1 μm.
FIG. 10: Time-series of confocal fluorescence ratiometric images of actinomycin D-treated T lymphocytes stained with F2N12S. The cells were treated with actinomycin D for 18 hours and then, incubated with the probe (0.2 μM) for 5 min. Images were recorded at 1 min (a), 10 min (b) and 20 min (c) post incubation. […] The size of the images is 60×73.1 μm.
For collecting cell images, a Laser Scanning Confocal Imaging System MRC-1024 (Bio-Rad) was used. Cells in chambered cover glass were prepared by following the preparation procedure described above. The 442 nm line of a HeCd laser was used as the excitation light source. Emission was collected by using two filters: 485/30 for the N* band and 585LP for the T* band. Collected images were analyzed by the Amira 3.0 software.
To further compare F2N12S and annexinV-derived probes, two-color ratiometric images of F2N12S-labeled cells undergoing apoptosis were recorded by laser scanning confocal microscopy and compared with intensity based images obtained using annexin V-FITC. […] Moreover, the fluorescence intensity of apoptotic cells varies considerably from cell to cell. These differences are difficult to interpret since the intensity depends on the probe concentration as well as on the size and confluence of the cells. […] According to our spectroscopy and flow cytometry data, the latter cells are apoptotic. […] Thus, unlike annexin V-FITC, these probes provide an absolute parameter, the intensity ratio, which can be calibrated, and can characterize the level of apoptosis independently of the probe/cell concentration and the excitation light intensity. In addition, the inventors have observed that in normal cells and cells on the initial steps of apoptosis, the T*/N* intensity ratio is not evenly distributed within the plasma membrane of a given cell. This may indicate an inhomogeneous lipid composition of their plasma membranes that is likely related to the presence of lipid domains.
The inventors also follow apoptotic transformation of the plasma membrane as a function of time. Normal and actinomycin D-treated cells were stained with the corresponding probe and the fluorescence images were subsequently recorded during 20 min. […]

T lymphoblastoid cells = assay: Flow cytometry analysis with annexin V-FITC, PI and F2N12S; assay type: cell-based, human
Excerpt: FIG. 6: Flow cytometry analysis of T lymphoblastoid cells treated by actinomycin D. Cells were stained by annexin V-FITC, PI and F2N12S. In (a), Annexin V-FITC and PI were selectively excited at 488 nm. Cells are sorted into living, dead and apoptotic cell populations. In (b), F2N12S is selectively excited at 407 nm. Living cells are discriminated from apoptotic and necrotic cells. In (c), the PI fluorescence intensities are plotted versus the T*/N* ratio of F2N12S. Living cells are in green, apoptotic cells are in cyan and dead cells are in orange. In (d), the populations sorted using the F2N12S/PI couple were colored according to their response with the annexin V/PI couple. The wavelengths of maximal transmission and bandwidths of used filters are indicated in brackets.
FIG. 7: Comparison of the intensiometric response of annexin V-FITC (a) with the ratiometric fluorescence response of F2N12S (b). Living, dead and apoptotic cells were identified as described in FIG. 6, by using either the annexin V-FITC/PI (a) or the F2N12S/PI (b) couple of dyes.
FIG. 8: Comparison of the response of annexin V-FITC and F2N12S on non-treated T lymphoblastoid cells stained by annexin V-FITC, PI and F2N12S. In (a), annexin V-FITC and PI were selectively excited at 488 nm. In (b), F2N12S is selectively excited at 407 nm. Cells are sorted into living and dead cell populations.
as §1
For the validation of F2N12S in cell cytometry, we used a FASCARIA™ (cell sorter) (BD Biosciences, CA, USA) equipped with an argon laser (488 nm) and a diode laser (407 nm) and emission filters DF30, DF42 and DF20 centered at 530 nm, 585 nm and 610 nm, respectively. The optical pathways corresponding to the argon laser and to the diode laser are independent. Data were analyzed using the FACSDIVA™ (cell sorter) Software (BD Biosciences). The granulation, size and fluorescence intensity were recorded at a rate of ˜1000 cells per second.
T lymphoblastoid cells were treated with actinomycin D and labeled simultaneously by FITC-labeled annexin V, propidium iodide (PI) and F2N12S. […] The emissions of FITC and PI were collected in the spectral regions of 515-545 nm and 600-620 nm, respectively. […] The emission light in this case was collected in two spectral regions: at 515-545 nm to monitor the emission of the N* band and 564-606 nm to collect the emission of the T* band (FIG. 6b). […] The second one is characterized by a high N*/T* intensity ratio (shown in red) and can be assigned to apoptotic and dead cells.
The probe of the invention F2N12S has been combined with PI and the fluorescence intensities of PI have been represented as a function of the T*/N* ratio of F2N12S (FIG. 6c). In this case, the populations of apoptotic and dead cells are clearly discriminated by using the differences in the PI intensities. […] This conclusion was further strengthened when the populations discriminated by the F2N12S/PI couple were colored according to their response with the annexin V-FITC/PI couple (FIG. 6d).

[1] = actinomycin D-treated cells, probe combined with PI

Row | Molecule | content of hypodiploid DNA (CEM T cells) | time-dependent change of the fluorescence images (T lymphocytes; actinomycin D-treated cells, images recorded during 20 min) | which cells are stained in fluorescence images (T lymphocytes; normal and actinomycin D-treated cells) | percentage of apoptotic cells (T lymphoblastoid cells; [1]) | percentage of dead cells (T lymphoblastoid cells; [1]) | percentage of living cells (T lymphoblastoid cells; [1]) | percentage of dead cells (T lymphoblastoid cells; non-treated T lymphoblastoid cells)
1 | Cc1c2oc3c(C)ccc(C(=O)N[C@@H]4C(=O)N[C@H](C(C)C)C(=O)N5CCC[C@H]5C(=O)N(C)CC(=O)N(C)[C@@H](C(C)C)C(=O)O[C@@H]4C)c3nc-2c(C(=O)N[C@@H]2C(=O)N[C@H](C(C)C)C(=O)N3CCC[C@H]3C(=O)N(C)CC(=O)N(C)[C@@H](C(C)C)C(=O)O[C@@H]2C)c(N)c1=O [actinomycin D, Actinomycin D] (I: T[dV]P[Sar][NMeV] / II: T[dV]P[Sar][NMeV]; ester I:1-I:C, II:1-II:C; linker I:N-II:N via Actinocin(9to1)) | 30±2% | – | – | – | – | – | –
2 | annexin V-FITC: Annexin V labelled with fluorescein isothiocyanate, kit from Immunotech; reference apoptosis marker (protein, UniProt P08758 2-320, looked up, FITC label) Annexin A5: AQVLRGTVTDFPGFDERADAETLRKAMKGLGTDEESILTLLTSRSNAQRQEISAAFKTLFGRDLLDDLKSELTGKFEKLIVALMKPSRLYDAYELKHALKGAGTNEKVLTEIIASRTPEELRAIKQVYEEEYGSSLEDDVVGDTSGYYQRMLVVLLQANRDPDAGIDEAQVEQDAQALFQAGELKWGTDEEKFITIFGTRSVSHLRKVFDKYMTISGFQIEETIDRETSGNLEQLLLAVVKSIRSIPAYLAETLYYAMKGAGTDDHTLIRVMVSRSEIDLFNIRKEFRKNFATSLYSMIKGDTSGDYKKALLLLCGEDD | – | not possible to detect any time-dependent changes | labels only apoptotic and necrotic cells | 18% | 49% | 33% | 5%
